The text below walks through data of article PMC12171143, “The Arabidopsis E3 ubiquitin ligase PUB13 synergistically interacts with BON1 to regulate plant flowering and immunity” (Frontiers in Plant Science, 2025).

The target of the test is T1, GST-PUB13 (Arabidopsis thaliana, UniProt Q9SNC6 1-660).
T1 construct: also called PUB13-GST; source: purified fusion protein from pGEX-6p-1; E. coli BL21 is named for the PUB13 construct in pGEX-6P-1 of the ubiquitination assay
T1 sequence (looked up): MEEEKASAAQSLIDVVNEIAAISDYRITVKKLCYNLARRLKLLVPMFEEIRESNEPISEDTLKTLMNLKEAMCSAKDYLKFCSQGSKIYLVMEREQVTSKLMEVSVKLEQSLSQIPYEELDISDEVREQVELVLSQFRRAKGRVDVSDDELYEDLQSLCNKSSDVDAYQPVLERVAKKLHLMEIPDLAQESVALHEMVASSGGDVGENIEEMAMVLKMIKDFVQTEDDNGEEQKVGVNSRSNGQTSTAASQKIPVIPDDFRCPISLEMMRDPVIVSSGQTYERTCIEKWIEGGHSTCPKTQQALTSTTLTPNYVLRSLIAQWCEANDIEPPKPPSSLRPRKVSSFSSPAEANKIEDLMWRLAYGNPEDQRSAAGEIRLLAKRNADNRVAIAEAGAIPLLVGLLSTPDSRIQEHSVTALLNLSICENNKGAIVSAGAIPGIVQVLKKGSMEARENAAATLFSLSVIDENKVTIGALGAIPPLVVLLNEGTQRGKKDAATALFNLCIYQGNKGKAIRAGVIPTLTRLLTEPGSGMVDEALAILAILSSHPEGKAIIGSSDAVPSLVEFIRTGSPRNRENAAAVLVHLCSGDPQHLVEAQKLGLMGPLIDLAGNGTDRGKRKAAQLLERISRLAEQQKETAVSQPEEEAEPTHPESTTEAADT
In words: pull-down; purified fusion proteins mixed, glutathione Sepharose beads 4 h at 4°C, five washes with 1x TBST, eluate blotted with anti-MBP. To be noted: both partners purified.

B1: MBP-BON1 (natural protein, Arabidopsis thaliana, UniProt Q941L3 1-578, looked up)
chain: MGNCCSDVASGAGATAGVGGSGSSAALGATNDALDYYLKSKGFNGLFSQIELSFSASNLRDRDVLSKSDPMVVVYQKEKDATLSEVFRSEVVLNSLAPKWIKKFIVAYHFETVQTLVFRVYDVDTKFQNSREEMLKLDEQQFLGEATCALSEIITKSTRTSTLELKRKDGFAPQAQPHHGKLIIHAEESLASKISTEIVFRCSNLESKDLFSKSDPFLVVSKIVEHGTPIPVSKTEVRKNDLNPIWKPVFLSVQQVGSKDSPVIIECSDFNSNGKHSLIGKVQKSLSDLEKLHLAGQGINFSLPTGAGQNKVLKSQLFVDKFTETVHHTFLEYLASGFELNFMVAIDFTASNGNPRLPDSLHYIDPSGRLNAYQRAIMDVGEVLQFYDSDKRFPAWGFGARPIDAPVSHCFNLNGSSSYSEVDGIQGIMTSYTSALFNVSLAGPTLFGPVINAAAMIASASLAQGSRKYYVLLIITDGVITDLQETKDALVSASDLPLSILIVGVGGADFKEMEILDADKGERLESSSGRLASRDIVQFVALRDVQYGEISVVQALLAELPSQFLTYMRIRNMKPIPP
notes: source: purified fusion protein from pMAL-c4x
In the case of B1, the binding result is listed as “binds”.
